The values below come from paper PMC6030200.

In test [1] the target is recombinant human integrin α6β1 (human) (UniProt P23229). Description: SPR; Biacore T200; integrin α6β4 or α6β1 immobilised by EDC/NHS coupling on CM5 chips (about 16000 RU); seven 2-fold dilutions of PB injected 120 s at 30 µl/minute, 120 s dissociation; 10 mM HEPES, 150 mM NaCl, 1 mM CaCl2, 1 mM MgCl2, 0.05% P20, pH 7.4; 25 °C.
For test [2], the target named is recombinant human integrin α6β4 (human) (UniProt P23229). The description is as above.
Test [3] deals with HAdV-41 penton base protein, recombinant, soluble (human adenovirus type 41 (HAdV-41)). Description: negative-stain electron microscopy.
The target is the same in test [4]. The test is described as follows: gas-phase electrophoretic mobility macromolecular analysis (GEMMA).

Chain of recombinant human integrin α6β4 (human) (P23229 24-1130, chain 1 of 2): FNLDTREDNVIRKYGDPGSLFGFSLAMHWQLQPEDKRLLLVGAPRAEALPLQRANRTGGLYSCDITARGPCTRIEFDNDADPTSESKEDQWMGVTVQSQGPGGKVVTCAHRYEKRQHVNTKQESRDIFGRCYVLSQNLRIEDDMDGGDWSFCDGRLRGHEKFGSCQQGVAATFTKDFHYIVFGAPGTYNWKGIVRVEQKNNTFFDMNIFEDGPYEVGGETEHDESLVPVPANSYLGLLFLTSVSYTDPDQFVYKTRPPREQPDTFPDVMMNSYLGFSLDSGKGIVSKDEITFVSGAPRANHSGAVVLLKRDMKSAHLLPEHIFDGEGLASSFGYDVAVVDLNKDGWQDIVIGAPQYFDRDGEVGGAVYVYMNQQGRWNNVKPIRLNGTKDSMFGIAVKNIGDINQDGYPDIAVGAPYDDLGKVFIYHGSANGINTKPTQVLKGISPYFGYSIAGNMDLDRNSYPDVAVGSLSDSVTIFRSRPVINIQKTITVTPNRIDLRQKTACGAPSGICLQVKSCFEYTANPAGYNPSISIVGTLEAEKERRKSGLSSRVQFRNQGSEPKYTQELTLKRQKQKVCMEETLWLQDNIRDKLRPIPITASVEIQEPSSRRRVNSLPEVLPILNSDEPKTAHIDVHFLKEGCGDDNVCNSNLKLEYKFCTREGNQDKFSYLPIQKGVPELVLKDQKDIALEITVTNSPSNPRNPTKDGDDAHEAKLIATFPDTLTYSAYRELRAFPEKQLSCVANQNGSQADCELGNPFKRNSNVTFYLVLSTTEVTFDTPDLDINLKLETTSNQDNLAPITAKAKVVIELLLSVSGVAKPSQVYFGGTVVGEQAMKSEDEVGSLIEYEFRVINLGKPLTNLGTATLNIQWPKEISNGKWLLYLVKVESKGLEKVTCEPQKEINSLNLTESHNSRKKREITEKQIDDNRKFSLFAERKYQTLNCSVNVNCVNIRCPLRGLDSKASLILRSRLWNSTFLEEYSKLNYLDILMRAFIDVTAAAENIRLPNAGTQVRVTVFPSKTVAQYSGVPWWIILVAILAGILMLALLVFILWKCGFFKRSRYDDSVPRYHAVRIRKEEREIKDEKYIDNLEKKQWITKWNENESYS
Chain of recombinant human integrin α6β4 (human) (P16144 28-710, chain 2 of 2, further chain): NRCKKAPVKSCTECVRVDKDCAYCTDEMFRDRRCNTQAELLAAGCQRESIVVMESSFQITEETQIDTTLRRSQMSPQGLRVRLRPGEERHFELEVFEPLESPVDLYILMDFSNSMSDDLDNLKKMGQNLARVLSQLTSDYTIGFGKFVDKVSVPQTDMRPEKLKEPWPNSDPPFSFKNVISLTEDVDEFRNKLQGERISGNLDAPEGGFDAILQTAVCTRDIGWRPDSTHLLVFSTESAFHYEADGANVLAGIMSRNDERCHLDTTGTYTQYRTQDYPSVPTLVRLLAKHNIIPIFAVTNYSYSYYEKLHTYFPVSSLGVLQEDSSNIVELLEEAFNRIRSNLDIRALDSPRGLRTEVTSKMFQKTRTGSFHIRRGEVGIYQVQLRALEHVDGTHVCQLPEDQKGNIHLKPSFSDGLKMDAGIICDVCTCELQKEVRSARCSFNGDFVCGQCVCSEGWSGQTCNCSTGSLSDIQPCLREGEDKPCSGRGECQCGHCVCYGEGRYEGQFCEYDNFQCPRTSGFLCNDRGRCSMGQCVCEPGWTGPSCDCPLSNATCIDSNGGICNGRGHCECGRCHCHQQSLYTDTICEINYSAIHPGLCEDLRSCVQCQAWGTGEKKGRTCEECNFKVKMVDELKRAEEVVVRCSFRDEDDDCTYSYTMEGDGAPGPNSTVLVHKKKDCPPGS

Consider “HAdV-5 penton base protein, recombinant, soluble (from UniProt P12538 1-571) (natural protein)”, for which the fold lower affinity than 40PB and 41PB in test [1] and in test [2] was 3 fold in each case.

“HAdV-40 penton base protein, recombinant, soluble (natural protein)”: in test [1], the fold lower affinity than to α6β4 turned out to be 10 fold and the koff was 0.1 s⁻¹.

In the case of “HAdV-41 penton base protein, recombinant, soluble (natural protein)”, the stoichiometry N in test [3] is 5. In test [4], the stoichiometry N was 5. Also, in test [1], the fold lower affinity than to α6β4 is 10 fold and the kon is 10000 M⁻¹ s⁻¹.
